Source: the supplement of paper PMC5998384

Key:
HeLa Kyoto [1] = test: solubility change mitosis vs G1/S (difference of NP-40 vs SDS log2 ratios) (log2 ratio difference); higher = more soluble in mitosis
HeLa Kyoto [2] = test: melting temperature (median over replicates), in situ; higher = more thermally stable
HeLa Kyoto [3] = test: solubility in G1/S (NP-40 vs SDS abundance) (log2 ratio); higher = more soluble; conditions: cell cycle stage: G1/S
HeLa Kyoto [4] = test: thermal stability score vs G1/S (z-score of summed log2 fold changes over temperatures); higher = more thermally stable than in G1/S
[5] = cell cycle stage: early G1 (4.5 h after nocodazole release)
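Throughout, for melting temperature (median over replicates), in situ: HeLa Kyoto cells synchronized by double thymidine or nocodazole block, proteins quantified by TMT10plex mass spectrometry, three independent biological replicates.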
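Throughout, for solubility change mitosis vs G1/S (difference of NP-40 vs SDS log2 ratios): synchronized HeLa Kyoto cells (double thymidine block for G1/S, nocodazole release for mitosis), protein amounts in NP-40 versus SDS lysates quantified by mass spectrometry, three biological replicates.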
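Throughout, for solubility in G1/S (NP-40 vs SDS abundance): HeLa Kyoto cells arrested at G1/S by double thymidine block, proteins quantified by TMT10plex mass spectrometry in mild NP-40 versus SDS extracts, three biological replicates.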
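Throughout, for thermal stability score vs G1/S (z-score of summed log2 fold changes over temperatures): synchronized HeLa Kyoto cells, proteins quantified by TMT10plex mass spectrometry, three biological replicates, mitosis taken 0.5 h after nocodazole release, G1/S directly after double thymidine block.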

Sequence	solubility change mitosis (log2) (HeLa Kyoto [1])	melting temperature (HeLa Kyoto [2]; cell cycle stage: G1/S) [°C]	melting temperature (HeLa Kyoto [2]; cell cycle stage: mitosis) [°C]	solubility in G1/S (log2) (HeLa Kyoto [3])	thermal stability score (HeLa Kyoto [4]; [5])	thermal stability score (HeLa Kyoto [4]; cell cycle stage: mitosis)
MRLFVSDGVPGCLPVLAAAGRARGRAEVLISTVGPEDCVVPFLTRPKVPVLQLDSGNYLFSTSAICRYFFLLSGWEQDDLTNQWLEWEATELQPALSAALYYLVVQGKKGEDVLGSVRRALTHIDHSLSRQNCPFLAGETESLADIVLWGALYPLLQDPAYLPEELSALHSWFQTLSTQEPCQRAAETVLKQQGVLALRPYLQKQPQPSPAEGRAVTNEPEEEELATLSEEEIAMAVTAWEKGLESLPPLRPQQNPVLPVAGERNVLITSALPYVNNVPHLGNIIGCVLSADVFARYSRLRQWNTLYLCGTDEYGTATETKALEEGLTPQEICDKYHIIHADIYRWFNISFDIFGRTTTPQQTKITQDIFQQLLKRGFVLQDTVEQLRCEHCARFLADRFVEGVCPFCGYEEARGDQCDKCGKLINAVELKKPQCKVCRSCPVVQSSQHLFLDLPKLEKRLEEWLGRTLPGSDWTPNAQFITRSWLRDGLKPRCITRDLKWGTPVPLEGFEDKVFYVWFDATIGYLSITANYTDQWERWWKNPEQVDLYQFMAKDNVPFHSLVFPCSALGAEDNYTLVSHLIATEYLNYEDGKFSKSRGVGVFGDMAQDTGIPADIWRFYLLYIRPEGQDSAFSWTDLLLKNNSELLNNLGNFINRAGMFVSKFFGGYVPEMVLTPDDQRLLAHVTLELQHYHQLLEKVRIRDALRSILTISRHGNQYIQVNEPWKRIKGSEADRQRAGTVTGLAVNIAALLSVMLQPYMPTVSATIQAQLQLPPPACSILLTNFLCTLPAGHQIGTVSPLFQKLENDQIESLRQRFGGGQAKTSPKPAVVETVTTAKPQQIQALMDEVTKQGNIVRELKAQKADKNEVAAEVAKLLDLKKQLAVAEGKPPEAPKGKKKK [MARS]	-0.109	49.1	49.4	0.171	1.07	4.3
MRLGPRTAALGLLLLCAAAAGAGKAEELHYPLGERRSDYDREALLGVQEDVDEYVKLGHEEQQKRLQAIIKKIDLDSDGFLTESELSSWIQMSFKHYAMQEAKQQFVEYDKNSDDTVTWDEYNIQMYDRVIDFDENTALDDAEEESFRKLHLKDKKRFEKANQDSGPGLSLEEFIAFEHPEEVDYMTEFVIQEALEEHDKNGDGFVSLEEFLGDYRWDPTANEDPEWILVEKDRFVNDYDKDNDGRLDPQELLPWVVPNNQGIAQEEALHLIDEMDLNGDKKLSEEEILENPDLFLTSEATDYGRQLHDDYFYHDEL [RCN2]	0.0798	54.1	55.7	0.0519	4.55	0.298
MRLLRRRHMPLRLAMVGCAFVLFLFLLHRDVSSREEATEKPWLKSLVSRKDHVLDLMLEAMNNLRDSMPKLQIRAPEAQQTLFSINQSCLPGFYTPAELKPFWERPPQDPNAPGADGKAFQKSKWTPLETQEKEEGYKKHCFNAFASDRISLQRSLGPDTRPPECVDQKFRRCPPLATTSVIIVFHNEAWSTLLRTVYSVLHTTPAILLKEIILVDDASTEEHLKEKLEQYVKQLQVVRVVRQEERKGLITARLLGASVAQAEVLTFLDAHCECFHGWLEPLLARIAEDKTVVVSPDIVTIDLNTFEFAKPVQRGRVHSRGNFDWSLTFGWETLPPHEKQRRKDETYPIKSPTFAGGLFSISKSYFEHIGTYDNQMEIWGGENVEMSFRVWQCGGQLEIIPCSVVGHVFRTKSPHTFPKGTSVIARNQVRLAEVWMDSYKKIFYRRNLQAAKMAQEKSFGDISERLQLREQLHCHNFSWYLHNVYPEMFVPDLTPTFYGAIKNLGTNQCLDVGENNRGGKPLIMYSCHGLGGNQYFEYTTQRDLRHNIAKQLCLHVSKGALGLGSCHFTGKNSQVPKDEEWELAQDQLIRNSGSGTCLTSQDKKPAMAPCNPSDPHQLWLFV [GALNT6]	-0.117	53.6	53.2	0.0486	4	5.54
MRPEPGGCCCRRTVRANGCVANGEVRNGYVRSSAAAAAAAAAGQIHHVTQNGGLYKRPFNEAFEETPMLVAVLTYVGYGVLTLFGYLRDFLRYWRIEKCHHATEREEQKDFVSLYQDFENFYTRNLYMRIRDNWNRPICSVPGARVDIMERQSHDYNWSFKYTGNIIKGVINMGSYNYLGFARNTGSCQEAAAKVLEEYGAGVCSTRQEIGNLDKHEELEELVARFLGVEAAMAYGMGFATNSMNIPALVGKGCLILSDELNHASLVLGARLSGATIRIFKHNNMQSLEKLLKDAIVYGQPRTRRPWKKILILVEGIYSMEGSIVRLPEVIALKKKYKAYLYLDEAHSIGALGPTGRGVVEYFGLDPEDVDVMMGTFTKSFGASGGYIGGKKELIDYLRTHSHSAVYATSLSPPVVEQIITSMKCIMGQDGTSLGKECVQQLAENTRYFRRRLKEMGFIIYGNEDSPVVPLMLYMPAKIGAFGREMLKRNIGVVVVGFPATPIIESRARFCLSAAHTKEILDTALKEIDEVGDLLQLKYSRHRLVPLLDRPFDETTYEETED [SPTLC2]	-0.16	53	52.7	0.00928	0.665	-0.386
MRPFFLLCFALPGLLHAQQACSRGACYPPVGDLLVGRTRFLRASSTCGLTKPETYCTQYGEWQMKCCKCDSRQPHNYYSHRVENVASSSGPMRWWQSQNDVNPVSLQLDLDRRFQLQEVMMEFQGPMPAGMLIERSSDFGKTWRVYQYLAADCTSTFPRVRQGRPQSWQDVRCQSLPQRPNARLNGGKVQLNLMDLVSGIPATQSQKIQEVGEITNLRVNFTRLAPVPQRGYHPPSAYYAVSQLRLQGSCFCHGHADRCAPKPGASAGPSTAVQVHDVCVCQHNTAGPNCERCAPFYNNRPWRPAEGQDAHECQRCDCNGHSETCHFDPAVFAASQGAYGGVCDNCRDHTEGKNCERCQLHYFRNRRPGASIQETCISCECDPDGAVPGAPCDPVTGQCVCKEHVQGERCDLCKPGFTGLTYANPQGCHRCDCNILGSRRDMPCDEESGRCLCLPNVVGPKCDQCAPYHWKLASGQGCEPCACDPHNSLSPQCNQFTGQCPCREGFGGLMCSAAAIRQCPDRTYGDVATGCRACDCDFRGTEGPGCDKASGRCLCRPGLTGPRCDQCQRGYCNRYPVCVACHPCFQTYDADLREQALRFGRLRNATASLWSGPGLEDRGLASRILDAKSKIEQIRAVLSSPAVTEQEVAQVASAILSLRRTLQGLQLDLPLEEETLSLPRDLESLDRSFNGLLTMYQRKREQFEKISSADPSGAFRMLSTAYEQSAQAAQQVSDSSRLLDQLRDSRREAERLVRQAGGGGGTGSPKLVALRLEMSSLPDLTPTFNKLCGNSRQMACTPISCPGELCPQDNGTACGSRCRGVLPRAGGAFLMAGQVAEQLRGFNAQLQRTRQMIRAAEESASQIQSSAQRLETQVSASRSQMEEDVRRTRLLIQQVRDFLTDPDTDAATIQEVSEAVLALWLPTDSATVLQKMNEIQAIAARLPNVDLVLSQTKQDIARARRLQAEAEEARSRAHAVEGQVEDVVGNLRQGTVALQEAQDTMQGTSRSLRLIQDRVAEVQQVLRPAEKLVTSMTKQLGDFWTRMEELRHQARQQGAEAVQAQQLAEGASEQALSAQEGFERIKQKYAELKDRLGQSSMLGEQGARIQSVKTEAEELFGETMEMMDRMKDMELELLRGSQAIMLRSADLTGLEKRVEQIRDHINGRVLYYATCK [LAMB3]	-0.12	53.8	53.6	0.117	-0.552	1.4
MRPQELPRLAFPLLLLLLLLLPPPPCPAHSATRFDPTWESLDARQLPAWFDQAKFGIFIHWGVFSVPSFGSEWFWWYWQKEKIPKYVEFMKDNYPPSFKYEDFGPLFTAKFFNANQWADIFQASGAKYIVLTSKHHEGFTLWGSEYSWNWNAIDEGPKRDIVKELEVAIRNRTDLRFGLYYSLFEWFHPLFLEDESSSFHKRQFPVSKTLPELYELVNNYQPEVLWSDGDGGAPDQYWNSTGFLAWLYNESPVRGTVVTNDRWGAGSICKHGGFYTCSDRYNPGHLLPHKWENCMTIDKLSWGYRREAGISDYLTIEELVKQLVETVSCGGNLLMNIGPTLDGTISVVFEERLRQMGSWLKVNGEAIYETHTWRSQNDTVTPDVWYTSKPKEKLVYAIFLKWPTSGQLFLGHPKAILGATEVKLLGHGQPLNWISLEQNGIMVELPQLTIHQMPCKWGWALALTNVI [FUCA2]	-0.00976	54.8	54.8	-0.00865	2.46	3.64
MRRFLLLYATQQGQAKAIAEEICEQAVVHGFSADLHCISESDKYDLKTETAPLVVVVSTTGTGDPPDTARKFVKEIQNQTLPVDFFAHLRYGLLGLGDSEYTYFCNGGKIIDKRLQELGARHFYDTGHADDCVGLELVVEPWIAGLWPALRKHFRSSRGQEEISGALPVASPASSRTDLVKSELLHIESQVELLRFDDSGRKDSEVLKQNAVNSNQSNVVIEDFESSLTRSVPPLSQASLNIPGLPPEYLQVHLQESLGQEESQVSVTSADPVFQVPISKAVQLTTNDAIKTTLLVELDISNTDFSYQPGDAFSVICPNSDSEVQSLLQRLQLEDKREHCVLLKIKADTKKKGATLPQHIPAGCSLQFIFTWCLEIRAIPKKAFLRALVDYTSDSAEKRRLQELCSKQGAADYSRFVRDACACLLDLLLAFPSCQPPLSLLLEHLPKLQPRPYSCASSSLFHPGKLHFVFNIVEFLSTATTEVLRKGVCTGWLALLVASVLQPNIHASHEDSGKALAPKISISPRTTNSFHLPDDPSIPIIMVGPGTGIAPFIGFLQHREKLQEQHPDGNFGAMWLFFGCRHKDRDYLFRKELRHFLKHGILTHLKVSFSRDAPVGEEEAPAKYVQDNIQLHGQQVARILLQENGHIYVCGDAKNMAKDVHDALVQIISKEVGVEKLEAMKTLATLKEEKRYLQDIWS [MTRR]	-0.105	50.1	50.2	0.0379	0.212	0.326
MRRQWGSAMRAAEQAGCMVSASRAGQPEAGPWSCSGVILSRSPGLVLCHGGIFVPFLRAGSEVLTAAGAVFLPGDSCRDDLRLHVQWAPTAAGPGGGAERGRPGLCTPQCASLEPGPPAPSRGRPLQPRLPAELLLLLSCPAFWAHFARLFGDEAAEQWRFSSAARDDEVSEDEEADQLRALGWFALLGVRLGQEEVEEERGPAMAVSPLGAVPKGAPLLVCGSPFGAFCPDIFLNTLSCGVLSNVAGPLLLTDARCLPGTEGGGVFTARPAGALVALVVAPLCWKAGEWVGFTLLCAAAPLFRAARDALHRLPHSTAALAALLPPEVGVPWGLPLRDSGPLWAAAAVLVECGTVWGSGVAVAPRLVVTCRHVSPREAARVLVRSTTPKSVAIWGRVVFATQETCPYDIAVVSLEEDLDDVPIPVPAEHFHEGEAVSVVGFGVFGQSCGPSVTSGILSAVVQVNGTPVMLQTTCAVHSGSSGGPLFSNHSGNLLGIITSNTRDNNTGATYPHLNFSIPITVLQPALQQYSQTQDLGGLRELDRAAEPVRVVWRLQRPLAEAPRSKL [TYSND1]	0.0273	55.1	54	-0.163	-2.49	-2.64
MRSLGANMAAALRAAGVLLRDPLASSSWRVCQPWRWKSGAAAAAVTTETAQHAQGAKPQVQPQKRKPKTGILMLNMGGPETLGDVHDFLLRLFLDRDLMTLPIQNKLAPFIAKRRTPKIQEQYRRIGGGSPIKIWTSKQGEGMVKLLDELSPNTAPHKYYIGFRYVHPLTEEAIEEMERDGLERAIAFTQYPQYSCSTTGSSLNAIYRYYNQVGRKPTMKWSTIDRWPTHHLLIQCFADHILKELDHFPLEKRSEVVILFSAHSLPMSVVNRGDPYPQEVSATVQKVMERLEYCNPYRLVWQSKVGPMPWLGPQTDESIKGLCERGRKNILLVPIAFTSDHIETLYELDIEYSQVLAKECGVENIRRAESLNGNPLFSKALADLVHSHIQSNELCSKQLTLSCPLCVNPVCRETKSFFTSQQL [FECH]	-0.0764	51.9	53.4	0.25	-0.37	-0.327
